Measurements reported in patent US20230192818A1 (TWIST BIOSCIENCE, published 2023).
Like-named read-outs stand apart in the source and are kept apart here.

Assays:
[1] = target: T1, Antibody 178-08_His 501.V2 (27079) (SARS-CoV-2, UniProt P0DTC2 16-685); test: SPR (Carterra)
[2] = target: T1, Antibody 178-08_His 501.V2 (27079); test: SPR (Carterra); remark: listed apart in the source

B1: 3-31 (Fc fusion)
chain: EVQLVESGGGLVQPGGSLRLSCAASGSTFSINAMGWFRQAPGKEREFVAGITSSGGYTNYADSVKGRFTISADNSKNTAYLQMNSLKPEDTAVYYCAADGVPEYSDYASGPVWGQGTLVTVSS
notes: also called Antibody 3-31
B1 showed a Kd [1] of 96.7 µM and a Kd [2] of 96.7 µM.
